This assay deals with recombinant GST-RhoA (UniProt P61586). As to the kind of experiment: pull-down; recombinant GST-RhoA on beads; lysates of 293T cells transfected with WT or S9A Fam65b-GFP; 2 h at 4°C; pull-down buffer; anti-GFP immunoblot, band intensities in the pull-down normalised to the total lysate, four independent experiments. Background: Immunoblotting shows a protein as a band on a membrane.
Sequence of UniProt P61586 (P61586 whole entry): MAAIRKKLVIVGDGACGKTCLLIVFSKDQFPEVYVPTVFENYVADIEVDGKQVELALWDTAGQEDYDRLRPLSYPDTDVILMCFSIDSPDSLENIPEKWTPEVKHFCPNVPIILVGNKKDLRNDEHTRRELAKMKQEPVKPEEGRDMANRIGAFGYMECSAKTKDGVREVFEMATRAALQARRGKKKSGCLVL

Consider “Fam65b(S9A)-GFP (isoform 2) (natural protein)”, for which the fold of Fam65b bound to RhoA against WT Fam65b-GFP came out at 1.8 fold.

The values are drawn from publication PMC6141708.
